Laboratory results taken from FireProtDB (doi:10.1016/0022-2836(92)90907-2).

Settings: Bacillus amyloliquefaciens; pH 6.3; 25 °C; Urea; Fluorescence; MES 450 mM; reversible: yes; whole UniProt chain shown

B1: Ribonuclease wild type, P00648 (protein)
chain: MMKMEGIALKKRLSWISVCLLVLVSAAGMLFSTAAKTETSSHKAHTEAQVINTFDGVADYLQTYHKLPDNYITKSEAQALGWVASKGNLADVAPGKSIGGDIFSNREGKLPGKSGRTWREADINYTSGFRNSDRILYSSDWLIYKTTDHYQTFTKIR
denaturant m value: 1.92 kcal/mol/M
denaturant midpoint (higher = more stable): 4.6 M
unfolding free energy: 8.83 kcal/mol
